FireProtDB
“And” between values parts separate entries of the source, which are not always exact repeats. Identical values can stand only once.

Details: Aspergillus oryzae (strain ATCC 42149 / RIB 40), whole UniProt chain shown
[1] = pH 1, Thermal, NMR, HCl, KCl 0.15 M, reversible: yes
[2] = pH 1.2, 25 °C, Thermal, Absorbance, glycine-HCl 30 mM, NaCl 0.10 M
[3] = pH 1.6, Thermal, CD, HCl, reversible: yes
[4] = pH 2, 15 °C, GdnHCl, CD, HCl, reversible: yes
[5] = pH 2.08, Thermal, CD, HCl, reversible: yes
[6] = pH 2.2, Thermal, Absorbance, glycine 50 mM
[7] = pH 2.2, Thermal, CD, glycine 50 mM
[8] = pH 2.2, Thermal, Fluorescence, glycine 50 mM
[9] = pH 2.5, Thermal, DSC, glycine 50 mM, NaCl 200 mM, reversible: yes
[10] = pH 4.5, Thermal, DSC, Potassium acetate 50 mM, reversible: no
[11] = pH 4.6, 25 °C, GdnHCl, Absorbance, Sodium acetate 100 mM, reversible: yes
[12] = pH 4.6, 30 °C, GdnHCl, Absorbance, Sodium acetate 100 mM, reversible: yes
[13] = pH 4.6, 35 °C, GdnHCl, Absorbance, Sodium acetate 100 mM, reversible: yes
[14] = pH 4.6, Thermal, Absorbance, Sodium acetate 50 mM
[15] = pH 5, 10 °C, GdnHCl, Fluorescence, Sodium acetate 50 mM
[16] = pH 5, Thermal, Absorbance, Sodium acetate 50 mM, reversible: Yes
[17] = pH 5, Thermal, Absorbance, Sodium acetate 0.10 M, NaCl 0.10 M, reversible: yes
[18] = pH 5, Thermal, Absorbance, sodium acetate 5-20 mM, reversible: yes
[19] = pH 5, Thermal, CD, sodium acetate 5-20 mM, reversible: yes
[20] = pH 5, Thermal, DSC, acetate 50 mM, reversible: no
[21] = pH 5, Thermal, Fluorescence, Sodium acetate 0.05 M, reversible: yes
[22] = pH 5.5, Thermal, Absorbance, MES 50 mM, reversible: yes
[23] = pH 5.5, Thermal, DSC, Potassium acetate 15 mM
[24] = pH 5.5, Thermal, DSC, Potassium acetate 50 mM, reversible: yes
[25] = pH 5.5, Thermal, DSC, acetate 30 mM
[26] = pH 5.5, Thermal, DSC, sodium acetate 10 mM, KCl 100 mM, reversible: yes
[27] = pH 6, Thermal, Absorbance, MES 0.05 M, reversible: no
[28] = pH 6, Thermal, CD, MES 10 mM, KCl 0.1 M
[29] = pH 6, Thermal, DSC, Sodium phosphate 50 mM, NaCl 200 mM, reversible: yes
[30] = pH 6.35, 25 °C, Urea, Absorbance, Glycinamide 0.1 M
[31] = pH 6.8, Thermal, DSC, phosphate 10 mM, reversible: no
[32] = pH 7, 20 °C, GdnHCl, CD, Mops 50 mM
[33] = pH 7, 20 °C, GdnHCl, Fluorescence, Mops 50 mM
[34] = pH 7, 20 °C, GdnHCl, SAXS, Mops 50 mM
[35] = pH 7, Thermal, Absorbance, phosphate 0.03 M
[36] = pH 7, Thermal, CD, MOPS 20 mM, reversible: Yes (>90%)
[37] = pH 7, Thermal, CD, Sodium cacodylate 50 mM, reversible: yes
[38] = pH 7, Thermal, DSC, MES 30 mM, reversible: yes
[39] = pH 7, Thermal, DSC, bis-Tris-HCl 50 mM, reversible: yes
[40] = pH 7, Thermal, Fluorescence, MOPS 30 mM, NaCl 0.1 M, reversible: yes
[41] = pH 7, Thermal, Fluorescence, MOPS 30 mM
[42] = pH 7.05, 25 °C, Urea, Absorbance, Glycinamide 0.1 M
[43] = pH 7.1, Thermal, Absorbance, None, reversible: Yes (>90%)
[44] = pH 7.1, Thermal, CD, None, reversible: Yes (>90%)
[45] = pH 8, 25 °C, GdnHCl, CD, Sodium phosphate 50 mM, NaCl 25 mM, reversible: Yes

B1: Guanyl-specific ribonuclease T1 wild type, P00651 (protein)
chain: MMYSKLLTLTTLLLPTALALPSLVERACDYTCGSNCYSSSDVSTAQAAGYQLHEDGETVGSNSYPHKYNNYEGFDFSVSSPYYEWPILSSGDVYSGGSPGADRVVFNENNQLAGVITHTGASGNNFVECT
Tm [1]: 42.4 °C | heat capacity change of unfolding [1]: 1.79 kcal/mol/K | unfolding enthalpy (van 't Hoff) [1]: 43.2 kcal/mol | heat capacity change of unfolding [2]: 1.47 kcal/mol/K | unfolding enthalpy (van 't Hoff) [2]: 54.8 kcal/mol | unfolding free energy [2]: 1 kcal/mol | Tm [3]: 23 °C | unfolding free energy [3]: 1.72 kcal/mol | Tm (pH 1.9, Thermal, CD, HCl, reversible: yes): 25.8 °C | denaturant midpoint (higher = more stable) [4]: 1.86 M | unfolding free energy [4]: 3.68 kcal/mol | Tm [5]: 28.7 °C | unfolding free energy [5]: 3.16 kcal/mol | Tm [6]: 8.3 °C | unfolding enthalpy (van 't Hoff) [6]: 49 kcal/mol | Tm [7]: 20.2 °C | unfolding enthalpy (van 't Hoff) [7]: 20 kcal/mol | Tm [8]: 9.3 °C | unfolding enthalpy (van 't Hoff) [8]: 24 kcal/mol | Tm [9]: 40 °C | heat capacity change of unfolding [9]: 1.15 kcal/mol/K | unfolding enthalpy (calorimetric) [9]: 85 kcal/mol | Tm (pH 4.4, Thermal, NMR, Unknown): 52.3 °C | unfolding enthalpy (van 't Hoff) (pH 4.4, Thermal, NMR, Unknown): 127 kcal/mol | Tm [10]: 57 °C | unfolding enthalpy (calorimetric) [10]: 106 kcal/mol | denaturant m value [11]: 2.56 kcal/mol/M | denaturant midpoint (higher = more stable) [11]: 2.82 M | unfolding free energy [11]: 7.22 kcal/mol | denaturant m value [12]: 2.65 kcal/mol/M | denaturant midpoint (higher = more stable) [12]: 2.56 M | unfolding free energy [12]: 6.59 kcal/mol | denaturant m value [13]: 2.48 kcal/mol/M | denaturant midpoint (higher = more stable) [13]: 2.25 M | unfolding free energy [13]: 5.6 kcal/mol | Tm [14]: 56.2 °C | unfolding enthalpy (van 't Hoff) [14]: 107 kcal/mol | denaturant m value [15]: 1.84 kcal/mol/M | denaturant midpoint (higher = more stable) [15]: 5.18 M | unfolding free energy [15]: 9.54 kcal/mol | unfolding free energy (pH 5, 25 °C, GdnHCl, CD, Sodium acetate-Acetic acid 0.1 M, reversible: yes): 10.5 kcal/mol | unfolding free energy (pH 5, 25 °C, GdnHCl, DSC, Sodium acetate-Acetic acid 0.1 M, reversible: yes): 11 kcal/mol | unfolding free energy (pH 5, 40 °C, Thermal, Absorbance, Sodium acetate 50 mM, reversible: Yes): 5.06 kcal/mol | Tm [16]: 58 °C | unfolding enthalpy (van 't Hoff) [16]: 104 kcal/mol | Tm (pH 5, Thermal, Absorbance, Sodium acetate 50 mM, reversible: yes): 44.4 °C | Tm [17]: 63.3 °C | unfolding enthalpy (van 't Hoff) [17]: 118 kcal/mol | Tm (pH 5, Thermal, Absorbance, sodium acetate 50 mM, reversible: yes): 61.5 °C | Tm [18]: 58.2 °C | unfolding enthalpy (van 't Hoff) [18]: 102 kcal/mol | Tm (pH 5, Thermal, CD, sodium acetate 50 mM): 53.7 °C | Tm [19]: 64.3 °C | unfolding enthalpy (van 't Hoff) [19]: 90.8 kcal/mol | Tm [20]: 58.9 °C | unfolding enthalpy (calorimetric) [20]: 89.6 kcal/mol | Tm (pH 5, Thermal, Fluorescence, Sodium acetate 0.01 M, reversible: yes (>98%)): 58.8 °C | Tm [21]: 56.7 °C | unfolding enthalpy (van 't Hoff) [21]: 117 kcal/mol | Tm (pH 5, Thermal, Fluorescence, Sodium formate 0.1 M, NaCl 0.25 M, reversible: yes): 59.3 °C | Tm [22]: 58 °C | unfolding enthalpy (van 't Hoff) [22]: 103 kcal/mol | Tm [23]: 62 °C | unfolding enthalpy (calorimetric) [23]: 109 kcal/mol | unfolding enthalpy (van 't Hoff) [23]: 110 kcal/mol | Tm [24]: 60.9 °C | heat capacity change of unfolding [24]: 1 kcal/mol/K | unfolding enthalpy (calorimetric) [24]: 99.1 kcal/mol | Tm [25]: 64 °C | heat capacity change of unfolding [25]: 1.24 kcal/mol/K | unfolding enthalpy (calorimetric) [25]: 116 kcal/mol | Tm [26]: 60.7 °C | unfolding enthalpy (calorimetric) [26]: 107 kcal/mol | unfolding free energy (pH 6, 25 °C, Thermal, CD, MES 10 mM, KCL 0.1 M): 9.3 kcal/mol | Tm [27]: 51.9 °C | unfolding enthalpy (van 't Hoff) [27]: 97.5 kcal/mol | Tm (pH 6, Thermal, Absorbance, Sodium acetate 30 mM, NaCl 0.10 M, reversible: yes): 61.6 °C | Tm [28]: 59.6 °C | unfolding enthalpy (van 't Hoff) [28]: 112 kcal/mol | Tm [29]: 63.7 °C | heat capacity change of unfolding [29]: 1.3 kcal/mol/K | unfolding enthalpy (calorimetric) [29]: 114 kcal/mol | Tm (pH 6, Thermal, DSC, citrate 20 mM, NaCl 55 mM, reversible: yes): 65 °C | Tm (pH 6, Thermal, DSC, phosphate, reversible: yes(>90%)): 63.2 °C | denaturant m value [30]: 1.49 kcal/mol/M | denaturant midpoint (higher = more stable) [30]: 7.16 M | unfolding free energy (pH 6.45, 26 °C, GdnHCl, CD, Sodium phosphate 10 mM, KCl 0.1 M, reversible: yes): 14.4 kcal/mol | Tm [31]: 63.8 °C | unfolding enthalpy (calorimetric) [31]: 114 kcal/mol | unfolding free energy (pH 7, 0 °C, Urea, Fluorescence, MOPS 30 mM, NaCl 0.1 M, reversible: yes): 1.31 kcal/mol | unfolding free energy (pH 7, 2 °C, Urea, Fluorescence, MOPS 30 mM, NaCl 0.1 M, reversible: yes): 1.2 kcal/mol | unfolding free energy (pH 7, 5 °C, Urea, Fluorescence, MOPS 30 mM, NaCl 0.1 M, reversible: yes): 0.85 kcal/mol | denaturant m value [32]: 2.3 kcal/mol/M | denaturant midpoint (higher = more stable) [32]: 2.6 M | denaturant m value [33]: 1.9 kcal/mol/M and 1.8 kcal/mol/M | denaturant midpoint (higher = more stable) [33]: 2.6 M and 2.3 M | denaturant m value [34]: 1.9 kcal/mol/M | denaturant midpoint (higher = more stable) [34]: 2.5 M | unfolding free energy (pH 7, 25 °C, Urea, Fluorescence, MOPS 30 mM, reversible: yes): 5.5 kcal/mol | unfolding enthalpy (van 't Hoff) [35]: 115 kcal/mol and 112 kcal/mol and 104 kcal/mol | unfolding free energy [35]: 8.8 kcal/mol and 8 kcal/mol | Tm [36]: 61.7 °C | unfolding enthalpy (van 't Hoff) [36]: 112 kcal/mol | Tm [37]: 52.5 °C | unfolding enthalpy (van 't Hoff) [37]: 97.7 kcal/mol | Tm [38]: 53.3 °C | heat capacity change of unfolding [38]: 1.6 kcal/mol/K | unfolding enthalpy (calorimetric) [38]: 84.7 kcal/mol | Tm (pH 7, Thermal, DSC, Potassium phosphate 0.1 M): 44.4 °C | Tm [39]: 65.6 °C | unfolding enthalpy (calorimetric) [39]: 110 kcal/mol | Tm [40]: 12.4 °C | heat capacity change of unfolding [40]: 1.59 kcal/mol/K | unfolding enthalpy (van 't Hoff) [40]: 39.9 kcal/mol | Tm [41]: 48.3 °C | unfolding enthalpy (van 't Hoff) [41]: 96 kcal/mol | denaturant m value [42]: 1.45 kcal/mol/M | denaturant midpoint (higher = more stable) [42]: 7.59 M | unfolding free energy [42]: 10.9 kcal/mol and 3.97 kcal/mol | Tm [43]: 62.8 °C | unfolding enthalpy (van 't Hoff) [43]: 66 kcal/mol | Tm [44]: 61.4 °C | unfolding enthalpy (van 't Hoff) [44]: 122 kcal/mol | Tm (pH 7.4, Thermal, CD, PBS): 61.1 °C | unfolding enthalpy (van 't Hoff) (pH 7.4, Thermal, CD, PBS): 105 kcal/mol | unfolding free energy (pH 8, 15 °C, Urea, CD, Tris-HCl 0.1 M, NaCl 2.5 M): 2.61 kcal/mol | denaturant m value [45]: 1.99 kcal/mol/M | denaturant midpoint (higher = more stable) [45]: 3.1 M | Tm (pH 8, Thermal, CD, Sodium phosphate 50 mM, NaCl 25 mM, reversible: Yes): 65.6 °C | denaturant midpoint (higher = more stable) (pH 8.4, 23 °C, GdnHCl, Fluorescence, Tris-HCl 0.1 M): 2.25 M | denaturant midpoint (higher = more stable) (pH 8.4, 23 °C, GdnSCN, Fluorescence, Tris-HCl 0.1 M): 0.75 M
